One test addresses T1, His6-Fbp1ΔP2 (yeast (S. cerevisiae), UniProt P09201 1-348, ΔP2).
T1 construct: Fbp1, yeast gluconeogenic enzyme, proline 2 deleted; the initiator methionine is counted as residue 1; also called Fbp1P2Δ; source: E. coli expression, purified; not shown: His6, N-terminal, kept
T1 sequence (looked up): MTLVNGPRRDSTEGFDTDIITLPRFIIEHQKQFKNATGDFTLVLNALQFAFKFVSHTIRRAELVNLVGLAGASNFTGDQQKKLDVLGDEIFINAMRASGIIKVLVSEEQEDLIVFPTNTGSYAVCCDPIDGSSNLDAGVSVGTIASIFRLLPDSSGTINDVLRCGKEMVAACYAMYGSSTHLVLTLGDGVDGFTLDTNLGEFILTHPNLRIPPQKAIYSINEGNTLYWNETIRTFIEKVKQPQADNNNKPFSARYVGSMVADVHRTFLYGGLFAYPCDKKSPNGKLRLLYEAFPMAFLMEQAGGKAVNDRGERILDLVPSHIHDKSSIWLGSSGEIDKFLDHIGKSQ
Put plainly: pull-down; His6-Fbp1 (wild type or mutant) pulled down on Talon metal affinity resin; reactions with two or all three proteins; 6 μg each of His6-Fbp1 (1.6 μM), Hsp70 (0.9 μM) and GST-Fes1 (1.09 μM), with or without ATP, ADP or AMP (2.5 mM); 50 mM Tris-HCl pH 7.5, 150 mM NaCl, 2% glycerol, 5 mM MgCl2; 30 min at 4°C; washed with 5 mM imidazole, eluted with 250 mM imidazole; stained SDS-PAGE gels, bands quantified …. The following applies: both partners purified.

The next test deals with T2, His6-Fbp1^P2A,S12A,T13A (yeast (S. cerevisiae), UniProt P09201 1-348, P2A | S12A | T13A).
T2 construct: Fbp1, yeast gluconeogenic enzyme, P2A,S12A,T13A; the initiator methionine is counted as residue 1; source: E. coli expression, purified; not shown: His6, N-terminal, kept
T2 sequence (looked up): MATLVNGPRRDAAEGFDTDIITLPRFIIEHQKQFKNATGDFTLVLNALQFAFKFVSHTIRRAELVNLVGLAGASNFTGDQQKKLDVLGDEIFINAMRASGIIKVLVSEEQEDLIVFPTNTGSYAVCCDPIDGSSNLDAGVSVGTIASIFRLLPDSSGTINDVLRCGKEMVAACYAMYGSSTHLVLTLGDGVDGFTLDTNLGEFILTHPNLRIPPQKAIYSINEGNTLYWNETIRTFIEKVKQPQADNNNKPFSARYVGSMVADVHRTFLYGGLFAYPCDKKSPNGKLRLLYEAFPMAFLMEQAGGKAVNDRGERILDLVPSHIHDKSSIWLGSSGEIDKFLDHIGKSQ
Described as above. The settings on record: both partners purified.

B1: GST-Fes1 (natural protein, yeast (S. cerevisiae), UniProt P38260 1-290, looked up)
chain: MEKLLQWSIANSQGDKEAMARAGQPDPKLLQQLFGGGGPDDPTLMKESMAVIMNPEVDLETKLVAFDNFEMLIENLDNANNIENLKLWEPLLDVLVQTKDEELRAAALSIIGTAVQNNLDSQNNFMKYDNGLRSLIEIASDKTKPLDVRTKAFYALSNLIRNHKDISEKFFKLNGLDCIAPVLSDNTAKPKLKMRAIALLTAYLSSVKIDENIISVLRKDGVIESTIECLSDESNLNIIDRVLSFLSHLISSGIKFNEQELHKLNEGYKHIEPLKDRLNEDDYLAVKYVL
notes: Fes1, yeast Hsp70 nucleotide exchange factor; also called wild type GST-Fes1; source: E. coli expression, purified as described [15]; not shown: GST, N-terminal, kept
B1: the binding result in the test with His6-Fbp1ΔP2 and in the test with His6-Fbp1^P2A,S12A,T13A was “binds” each time.
